Source: PMC10019796

Target: mtDsbC-SARS-CoV-2 RBD Alpha variant (B.1.1.7) fusion protein (SARS-CoV-2) (UniProt P0DTC2)
Assay: BLI; biotinylated mtDsbC-RBD (20 µg/mL) immobilised on streptavidin (SA) biosensors, Fabs as analytes at three nanomolar concentrations; Octet RED384, 30 °C, 1000 rpm, 1 × PBS Kinetics Buffer; 1:1 interaction model, global fit

REGN10987 (L93Q) Fab
Kd: > 1 µM
